The target in assay [1] is T1, human C5a (human, UniProt P01031 678-751).
T1 construct: domain: C5a; Purified human C5a (Hycult) in ELISA; recombinant human C5a in the Transwell assay; also called free human C5a; recombinant human complement C5a
T1 sequence (looked up): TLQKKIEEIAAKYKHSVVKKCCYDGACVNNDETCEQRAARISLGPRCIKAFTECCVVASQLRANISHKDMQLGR
Briefly: ELISA, plate coated with human C5a. On the procedure:
Polystyrene microtiter plates were coated with purified human C5 or C5a (50 ng/well, Hycult) in PBS at 37° C. for 1 hr. After aspirating the C5 or C5a solution, wells were blocked with PBS containing 1% BSA in PBS at room temperature for 1 hour. Wells without C5 or C5a coating served as background controls. Different concentration of 7A12 mAb or control anti-C5 mAb or chimeric 7A12, 50 μl/well in blocking solution, were added to the wells. Following 1 hour incubation at room temperature, the wells were extensively washed with PBST. Human C5 or C5a-bound mAb was detected by the addition of anti-mouse IgG HRP 1:4000 dilution in blocking solution, which was allowed to incubate for 1 hour at RT. After washing with PBST, the plate was developed with HRP substrate for 6-10 min. The reaction was stopped with 2N H2SO4 and plate was read at 450 nm in a micro plate reader.
(§1) An ELISA plate was coated with human C5a or mouse C5a. After incubation with serially diluted 7A12 or the control anti-C5 mAb, bound mAb was detected by HRP-conjugated anti-mouse IgG. […] Since mAb 7A12 reacts with the whole C5 protein (as shown in FIG. 1), it can be concluded that mAb 7A12 binds both the C5a moiety of native human C5 and free human C5a. On the other hand, no binding of the control anti-C5 mAb to human C5a was seen, as depicted in FIG. 3B.
(In general: ELISA stands for enzyme-linked immunosorbent assay.)

Assay [2] deals with T2, mouse C5a (mouse, UniProt P06684 679-755).
T2 construct: domain: C5a; also called purified mouse C5a
T2 sequence (looked up): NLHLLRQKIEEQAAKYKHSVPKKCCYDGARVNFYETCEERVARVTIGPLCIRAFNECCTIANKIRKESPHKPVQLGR
The assay is described as follows: ELISA, plate coated with mouse C5a. Here is the method:
as §1

B1: monoclonal anti-C5a antibody designated mAb 7A12 (antibody, V domains shown)
VH: QVQLQQSDAELVKPGASVKISCKVSGYTFTDHIIHWMNQRPEQGLEWIGYIYPRDGNTNYNENFKGKATLTADKSSSTAYMQLNSLTSEDSAVYFCARERNLEYFDYWGQGTTLTVSS
VL: DIVLTQSPASLAVSLGQRATISCKASQSVDYDGDNYMNWYQQKPGQPPKLLIYAASNLDSGIPARFSGSGSGTDFTLNIHPVEEEDAATYYCQQSNEDPYTFGGGTKLEIKR
notes: also called 7A12 mAb
Regarding B1, the binding result in assay [1] is listed as “binds”; in assay [2], “no binding”.
